Experiments:
Superscript III = assay: RT-PCR of 2.2 kb eGFP transcript with Superscript III; assay type: biochemical; settings: 1.5 μg RNA
From the text: (§1) Samples were DNase treated using the Qiagen RNase-Free DNase Set (Qiagen Catalog #79254) followed by purification using the Qiagen RNeasy Mini Kit (Qiagen Catalog #74104) and manufacturer's instructions. To eliminate potential gDNA contamination, each RNA sample was DNase treated four times.
(§2) cDNA was generated using Invitrogen's SuperScript III First-Strand Synthesis System for RT-PCR (Invitrogen Catalog #18080-051) or a recombinant HIV Reverse Transcriptase (HIV RT, Worthington Biochemical Corporation Catalog #LS05003). All reactions received 2 μl 10 RT reaction buffer, 4 μl 25 mM MgCl2, 2 μl 0.1 M DTT, 1 μl 10 mM dNTPs, and 2 μM primer (8 μM when Phosphorothioate Primer used). For reactions using Superscript III, 200 U enzyme was used. Reactions using HIV RT contained 10 U enzyme. Different concentrations of RNA template were used, ranging from 1.5 to 5 μg/reaction. Table 21. No-RT and no-template controls were set up during reverse transcription. Reactions using Superscript III enzyme were incubated at 65° C. for 5 minutes, 50° C. for 60 minutes, and 85° C. for 5 minutes. Reactions using HIV RT were incubated at 65° C. for 5 minutes, 37° C. for 60 minutes, and 85° C. for 5 minutes. HIV RT was tested in the presence and absence of beta-thujaplicinol.
(§3) PCR Analysis: PCR was performed using primers PCR-F2 and PCR-R2. PCR products were resolved using a 1% agarose gel and purified using the QIAquick Gel Extraction Kit (Qiagen Catalog #28704). […]

[1] = target: T1, HIV Reverse Transcriptase (Human immunodeficiency virus type 1 group M subtype B, UniProt P04585); assay: RT-PCR of 2.2 kb eGFP transcript with HIV RT, with or without beta-thujaplicinol; assay type: biochemical
T1 construct: a recombinant HIV Reverse Transcriptase; purchased Worthington Biochemical Corporation LS05003
From the text: as §1, §2, §3

[2] = Sequence analysis of RT-PCR product against reference sequence; settings: SV40 DNA primer and HIV RT used in cDNA generation
Description: Sequence Analysis: Sequencing was performed using BigDye Terminator Cycle Sequencing. Data analysis was performed by GENEWIZ with DNASTAR Lasergene software. FIG. 34 (SEQ ID NO.: 23) depicts the WT eGFP Consensus sequence (2,225 bp); SV40 DNA primer and HIV RT used in cDNA generation. FIG. 35 (SEQ ID NO.: 24) depicts the Alpha-Thio-Uridine eGFP Consensus (2,225 bp); SV40 RNA primer and Superscript used in cDNA generation.

[3] = mRNA quality check before and after DNase treatment (agarose gel, OD 260/280); assay type: physicochemical
Description: The experimental procedure and assay readout for the analysis and removal of the mRNA contamination by plasmidic DNA was as follows: 1) the 4 mRNAs solutions were thawed, aliquoted and stored at −80° C., 2) aliquots of the mRNAs solutions were treated with the DNase as recommended by the manufacturer (Qiagen, cat #79254): four rounds of DNase were successively performed, 3) following the DNase digestion, the mRNAs were purified on columns as recommended by the manufacturer (Qiagen, RNeasy Elute), 4) the eluates were quantified and controlled on an Agarose gel, 5) a PCR amplification reaction was performed to evaluate the DNA contamination of the mRNA solutions before and after the DNase treatment.
Timeline of mRNAs solutions control and DNA digestion. mRNA solutions are thawed and digested with DNase. The solutions are purified on a column. The mRNA is quantified and quality control on an agarose gel is performed after purification. A PCR reaction of the mRNA aliquots is performed on aliquots from before and after purification.

B1: EGFP-WT: 2.2 kb wild type eGFP transcript (RNA template synthesized with plasmid pAFTAB) (nucleic acid)
DNA: TTGGCCACTCCCTCTCTGCGCGCTCGCTCGCTCACTGAGGCCGCCCGGGCAAAGCCCGGGCGTCGGGCGACCTTTGGTCGCCCGGCCTCAGTGAGCGAGCGAGCGCGCAGAGAGGGAGTGGCCAA
modifications: chemistry not fully specified; the letters are possibly those of the target site
- 2.2 kb fragment of interest in PCR from RT reaction (Superscript III; PBS RNA primer): present
- 2.2 kb fragment of interest in PCR from RT reaction (Superscript III; PCR-R2 primer): present
- 2.2 kb fragment of interest in PCR from RT reaction (Superscript III; SV40 DNA primer): present
- 2.2 kb fragment of interest in PCR from RT reaction ([1]; SV40 DNA primer, 1.5 μg RNA, β-Thujaplicinol 0 μM): present
- 2.2 kb fragment of interest in PCR from RT reaction ([1]; SV40 DNA primer, 2 μg RNA, β-Thujaplicinol 0 μM): present
- 2.2 kb fragment of interest in PCR from RT reaction ([1]; SV40 DNA primer, 2 μg RNA, β-Thujaplicinol 1 μM): present
- 2.2 kb fragment of interest in PCR from RT reaction ([1]; SV40 DNA primer, 5 μg RNA, β-Thujaplicinol 0.2 μM): present
- 2.2 kb fragment of interest in PCR from RT reaction ([1]; SV40 RNA primer, 1.5 μg RNA, β-Thujaplicinol 0 μM): present
- 2.2 kb fragment of interest in PCR from RT reaction ([1]; SV40 RNA primer, 1.5 μg RNA, β-Thujaplicinol 0.2 μM): present
- 2.2 kb fragment of interest in PCR from RT reaction ([1]; SV40 RNA primer, 2 μg RNA, β-Thujaplicinol 1 μM): present
- consensus sequence match to the reference sequence [2]: 100%
- OD 260/280 Post-treatment ([3]; mRNA solution after DNase treatment and column purification): 2.05
- OD 260/280 Pre-treatment ([3]; mRNA solution before DNase treatment and column purification): 2.07
